Measured values taken from EP4790069A1 (Kyoto University, dated 2026).

How the values were obtained:
[1] = molecular target: T1, human CD153 (human, UniProt P32971 1-234); test: flow cytometry, hybridoma supernatant on 293H cells expressing hCD153
T1 construct: whole, on cells; also called hCD153; CD30L
T1 sequence (looked up): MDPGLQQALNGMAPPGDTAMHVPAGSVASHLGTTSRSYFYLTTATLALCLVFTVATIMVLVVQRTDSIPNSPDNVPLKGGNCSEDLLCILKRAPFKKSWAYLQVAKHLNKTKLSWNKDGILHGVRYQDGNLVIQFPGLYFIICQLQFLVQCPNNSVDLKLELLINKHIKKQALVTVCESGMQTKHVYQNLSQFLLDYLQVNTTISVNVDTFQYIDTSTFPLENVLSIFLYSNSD

[2] = molecular target: T2, mouse CD153 (mouse, UniProt P32972 1-239); test: flow cytometry on EL4 cells stably expressing mouse CD153
T2 construct: whole, on cells; also called mCD153
T2 sequence (looked up): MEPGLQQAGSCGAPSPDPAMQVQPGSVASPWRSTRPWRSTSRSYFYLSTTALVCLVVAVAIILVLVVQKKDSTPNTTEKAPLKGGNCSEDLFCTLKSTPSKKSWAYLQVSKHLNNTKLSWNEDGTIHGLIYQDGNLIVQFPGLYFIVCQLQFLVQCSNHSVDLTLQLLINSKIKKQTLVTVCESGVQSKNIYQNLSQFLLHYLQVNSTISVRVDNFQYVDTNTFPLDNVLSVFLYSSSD

B1: anti-human CD153 monoclonal antibody 2H7-9 (antibody, V domains shown)
VH: RVQLQQSGAELVRPGTSVKISCKASGYAFTNYWLGWVKQRPGHGLEWIGDIYPGNYNSYSNEKFKGKATLTADESSSTAYMQLSSLTSEDSAVYFCARIYGNYWIFDVWGAGTTVTVSS
VL: QIVLTQSPAIMSASPGEKVTMTCSASSSVNYMHWFQQKPGTSPKLWIYSTSDLASGVPARFSGSGSGTSYSLTISRMEAEDAATYYCQQRSSYPLTFGAGTKLELK
notes: Mouse hybridoma antibody (CD153-KO B6 mouse), purified with Protein A and detected with anti-mouse IgG
binding result [1]: binds | binding result [2]: no binding (tested: 160 µg/ml to 0.00977 µg/ml)
